The source of these data is publication PMC12436594.

The data set deals with PvLDH (lactate dehydrogenase) (Plasmodium vivax) (UniProt Q4PRK9). Briefly: flow cytometry (Ni-NTA beads).
Setting [1] is: dUCOTc replaces every T after the 20-nt forward primer.

The sequence “CACTCACGTCAGTGACATGCGCATTACGCAGCGCTGCGCAGCGAGTACCGGTCAGAAATTTCGCACCAC [N0 COTc aptamer]” showed a Kd (dUCOTc (COT-carboxylate-modified dU) replaces every T after the 20-nt forward primer) of 3.7 nM.

“CACTCACGTCAGTGACATGCCAAGCGAAGTTGTGCGCCCGCGTCGTGGTCGTCAGAAATTTCGCACCAC [N5 COTc aptamer]” yielded a Kd under setting [1] of 14.4 nM.

In turn, “CACTCACGTCAGTGACATGCAGGTCCTCTCGCCCCCAGTGACTTGCGTGGTCAGAAATTTCGCACCAC [N15 COTc aptamer]” had a Kd under setting [1] of 5.6 nM.
